# According to publication PMC11964938:
# Molecular target: purified, recombinant myristoylated HIV-1 MA protein (HIV-1 pNL4-3)
substance,measurement,value
HIV-1 SP2 added to MA on lipid monolayers (peptide),share of sub-images that contributed to mature-like MA lattice classes on lipid monolayers in the presence of SP2 (7% mature-like and 7% immature-like without SP2; no immature-like classes with SP2),47%
